Results taken from the supplement of paper PMC10065799, “High-throughput profiling of sequence recognition by tyrosine kinases and SH2 domains using bacterial peptide display” (eLife, 2023).

The sequences below were run against EPHB1 (UniProt P54762) (assay: phosphorylation enrichment, bacterial display (enrichment ratio); higher = better substrate or ligand; peptides without Tyr show the background).
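Note: 11-residue human phosphosite peptides and single-mutation variants displayed on the E. coli surface, counted by deep sequencing, each peptide's frequency after selection divided by its frequency in the unselected input library; frequency after pTyr selection over input frequency; kinase dosed for 20-30% of maximal phosphorylation in three min.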

Sequence of EPHB1 (P54762 whole entry, looked up): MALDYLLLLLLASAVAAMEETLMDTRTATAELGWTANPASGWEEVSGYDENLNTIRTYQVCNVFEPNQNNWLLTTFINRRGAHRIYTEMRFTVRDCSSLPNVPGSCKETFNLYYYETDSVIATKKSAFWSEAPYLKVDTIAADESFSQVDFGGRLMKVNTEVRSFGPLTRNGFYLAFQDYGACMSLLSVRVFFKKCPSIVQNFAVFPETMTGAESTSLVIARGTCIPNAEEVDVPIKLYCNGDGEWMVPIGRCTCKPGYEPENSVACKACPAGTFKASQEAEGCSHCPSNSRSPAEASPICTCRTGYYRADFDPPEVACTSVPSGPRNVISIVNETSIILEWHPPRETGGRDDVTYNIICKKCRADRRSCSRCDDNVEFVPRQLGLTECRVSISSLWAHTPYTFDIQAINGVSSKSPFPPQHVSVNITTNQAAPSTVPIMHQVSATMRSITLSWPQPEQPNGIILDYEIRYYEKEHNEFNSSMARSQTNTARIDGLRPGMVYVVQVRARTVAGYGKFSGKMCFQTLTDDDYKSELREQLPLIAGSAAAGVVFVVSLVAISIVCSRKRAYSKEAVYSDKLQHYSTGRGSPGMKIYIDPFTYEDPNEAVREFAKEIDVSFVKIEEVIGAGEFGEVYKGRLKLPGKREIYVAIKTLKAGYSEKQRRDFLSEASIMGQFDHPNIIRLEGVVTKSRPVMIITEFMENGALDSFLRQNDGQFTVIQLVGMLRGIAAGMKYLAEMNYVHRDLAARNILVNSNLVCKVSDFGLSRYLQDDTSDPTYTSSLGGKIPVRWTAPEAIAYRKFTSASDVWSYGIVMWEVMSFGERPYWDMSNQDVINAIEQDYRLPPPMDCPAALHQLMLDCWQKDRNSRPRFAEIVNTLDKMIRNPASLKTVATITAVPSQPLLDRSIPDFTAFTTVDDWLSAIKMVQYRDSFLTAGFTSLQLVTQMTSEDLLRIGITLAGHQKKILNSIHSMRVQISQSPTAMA

PVQAAYQKVVD [HBB_Y131_A136D] and GEIQEYGAPSD [ABCC1_Y1508] are the same in phosphorylation enrichment: 0.493 for the first, 0.493 for the second.

First: KRIETYFSKNY [PLP1_Y50_L46R]
Second: LRTAVYHEILI [CREBBP_Y1450]
The phosphorylation enrichment of the first is lower: 0.427 for the first, 1.97 for the second.

Going from GGDGSYVSVPL [TNNI3K_Y425_S430L] to ADRARYSAFGG [RBM4_Y361], the phosphorylation enrichment falls from 0.414 to 0.371.

First: FQKDVYDIPPS [NEDD9_Y177_YF]
Second: GEDEPYAEPYA [APBA1_Y183_S184A]
The phosphorylation enrichment of the first is lower: 0.681 for the first, 0.685 for the second.

Going from FSQQTYCRVSN [ABCD1_Y180_Y181C] to TRSYKYLLLSM [NF1_Y491], the phosphorylation enrichment falls from 3.39 to 0.754.

First: MSNSAYVKREV [SCN1A_Y1694_F1692S]
Second: EIEFLYNENTV [IARS1_Y680]
The phosphorylation enrichment of the first is lower: 0.407 for the first, 0.641 for the second.

Going from AIKSFYAALID [RYR1_Y2426_M2423K] to IVRSLYEDPED [VHL_Y185_L188P], the phosphorylation enrichment falls from 1.25 to 0.748.

First: TEFIQYMRRKN [MAX_Y73_YF]
Second: NSAFFYKTAEE [CCT6B_Y250_G247A]
The phosphorylation enrichment of the first is lower: 0.44 for the first, 0.521 for the second.

First: SYCYRYCCAAR [SUMF1_Y344_R345C]
Second: TLSGIYQFNIA [FOXL2_Y81_I84N_YF]
The phosphorylation enrichment of the first is lower: 0.392 for the first, 0.76 for the second.

Going from NDFGNYNQQPS [HNRNPA2B1_Y306] to VKYLGYPPPEI [KDR_Y357_A352V], the phosphorylation enrichment falls from 0.691 to 0.468.

Compared with DFGSGYPNDPK [RNASEH2A_Y210_YF], PGVNYYFRVSA is higher in phosphorylation enrichment: 0.516 for the first, 0.715 for the second.

First: SWSTSYSGYRY [NKAPL_Y91]
Second: QTPVLYTMLDH [MPZ_Y220_A221T]
The phosphorylation enrichment of the first is lower: 0.596 for the first, 4.45 for the second.

First: LAARFYNWVSF [FLT4_Y1231_YF]
Second: ATARPYRPFII [LRP5_Y1528_YF]
The phosphorylation enrichment of the first is higher: 0.69 for the first, 0.356 for the second.

Going from VGTKRYVAPEV [ACVRL1_Y375_M376V] to SVNCTYSPALN [TP53_Y126_T123N], the phosphorylation enrichment rises from 0.309 to 0.654.

Going from EHLNRYINDTF [TTLL10_Y446_S448N] to EIIPFYGMSTY [FNDC3B_Y175], the phosphorylation enrichment rises from 0.567 to 0.685.

Going from GVTLLCFGRFN [ADGRD1_Y85_Y85C_YF] to FKDGQYWIRGQ [ACSF3_Y466_R471Q], the phosphorylation enrichment falls from 0.732 to 0.522.

For QRRLVYFERGA [RYR1_Y245_G248R_YF], the phosphorylation enrichment was 0.665.

Each sequence was assayed against MERTK (UniProt Q12866) in the same assay as above.
Sequence of MERTK (Q12866 whole entry, looked up): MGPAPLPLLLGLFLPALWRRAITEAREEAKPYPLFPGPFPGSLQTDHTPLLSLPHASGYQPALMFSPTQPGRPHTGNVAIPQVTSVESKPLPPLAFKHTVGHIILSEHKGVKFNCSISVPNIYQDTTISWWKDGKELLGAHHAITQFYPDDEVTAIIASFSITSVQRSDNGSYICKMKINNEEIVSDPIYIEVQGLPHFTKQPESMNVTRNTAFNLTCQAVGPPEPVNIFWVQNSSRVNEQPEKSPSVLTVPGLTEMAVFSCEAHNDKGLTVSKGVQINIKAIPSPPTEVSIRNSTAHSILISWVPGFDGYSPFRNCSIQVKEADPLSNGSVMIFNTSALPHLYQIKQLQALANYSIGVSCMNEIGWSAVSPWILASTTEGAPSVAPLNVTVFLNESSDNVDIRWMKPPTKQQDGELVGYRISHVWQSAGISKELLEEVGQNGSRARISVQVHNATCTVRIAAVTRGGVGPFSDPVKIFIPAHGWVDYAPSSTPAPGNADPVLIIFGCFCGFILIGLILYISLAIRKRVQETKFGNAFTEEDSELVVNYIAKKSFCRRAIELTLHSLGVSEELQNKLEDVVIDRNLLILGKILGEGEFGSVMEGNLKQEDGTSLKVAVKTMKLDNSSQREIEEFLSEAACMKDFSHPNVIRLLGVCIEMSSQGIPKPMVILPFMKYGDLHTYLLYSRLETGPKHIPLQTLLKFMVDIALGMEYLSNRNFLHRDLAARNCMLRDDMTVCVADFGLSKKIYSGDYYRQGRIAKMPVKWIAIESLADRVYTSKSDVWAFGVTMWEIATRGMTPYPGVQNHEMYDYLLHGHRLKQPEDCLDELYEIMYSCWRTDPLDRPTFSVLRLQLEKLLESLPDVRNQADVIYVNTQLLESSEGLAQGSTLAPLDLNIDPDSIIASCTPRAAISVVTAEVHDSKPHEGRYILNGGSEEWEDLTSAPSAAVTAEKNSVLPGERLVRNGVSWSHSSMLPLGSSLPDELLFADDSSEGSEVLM

Compared with PVQAAYQKVVD [HBB_Y131_A136D], GEIQEYGAPSD [ABCC1_Y1508] is higher in phosphorylation enrichment: 0.38 for the first, 0.476 for the second.

Compared with KRIETYFSKNY [PLP1_Y50_L46R], LRTAVYHEILI [CREBBP_Y1450] is higher in phosphorylation enrichment: 0.392 for the first, 7.48 for the second.

Going from GGDGSYVSVPL [TNNI3K_Y425_S430L] to ADRARYSAFGG [RBM4_Y361], the phosphorylation enrichment falls from 0.474 to 0.4.

Going from FQKDVYDIPPS [NEDD9_Y177_YF] to GEDEPYAEPYA [APBA1_Y183_S184A], the phosphorylation enrichment falls from 7.04 to 0.636.

First: FSQQTYCRVSN [ABCD1_Y180_Y181C]
Second: TRSYKYLLLSM [NF1_Y491]
The phosphorylation enrichment of the first is higher: 0.745 for the first, 0.485 for the second.

First: MSNSAYVKREV [SCN1A_Y1694_F1692S]
Second: EIEFLYNENTV [IARS1_Y680]
The phosphorylation enrichment of the first is lower: 0.381 for the first, 0.515 for the second.

Compared with AIKSFYAALID [RYR1_Y2426_M2423K], IVRSLYEDPED [VHL_Y185_L188P] is lower in phosphorylation enrichment: 2.53 for the first, 0.424 for the second.

First: TEFIQYMRRKN [MAX_Y73_YF]
Second: NSAFFYKTAEE [CCT6B_Y250_G247A]
The phosphorylation enrichment of the first is higher: 0.472 for the first, 0.439 for the second.

Compared with SYCYRYCCAAR [SUMF1_Y344_R345C], TLSGIYQFNIA [FOXL2_Y81_I84N_YF] is higher in phosphorylation enrichment: 0.437 for the first, 5.39 for the second.

Going from NDFGNYNQQPS [HNRNPA2B1_Y306] to VKYLGYPPPEI [KDR_Y357_A352V], the phosphorylation enrichment falls from 0.478 to 0.427.

Compared with DFGSGYPNDPK [RNASEH2A_Y210_YF], PGVNYYFRVSA is higher in phosphorylation enrichment: 0.424 for the first, 0.448 for the second.

First: SWSTSYSGYRY [NKAPL_Y91]
Second: QTPVLYTMLDH [MPZ_Y220_A221T]
The phosphorylation enrichment of the first is lower: 0.461 for the first, 13.4 for the second.

First: LAARFYNWVSF [FLT4_Y1231_YF]
Second: ATARPYRPFII [LRP5_Y1528_YF]
The phosphorylation enrichment of the first is higher: 1.02 for the first, 0.469 for the second.

Compared with VGTKRYVAPEV [ACVRL1_Y375_M376V], SVNCTYSPALN [TP53_Y126_T123N] is higher in phosphorylation enrichment: 0.422 for the first, 0.478 for the second.

Compared with EHLNRYINDTF [TTLL10_Y446_S448N], EIIPFYGMSTY [FNDC3B_Y175] is higher in phosphorylation enrichment: 0.46 for the first, 0.687 for the second.

First: GVTLLCFGRFN [ADGRD1_Y85_Y85C_YF]
Second: FKDGQYWIRGQ [ACSF3_Y466_R471Q]
The phosphorylation enrichment of the first is lower: 0.384 for the first, 0.385 for the second.

QRRLVYFERGA [RYR1_Y245_G248R_YF] was tested, and the phosphorylation enrichment was 0.484.

The sequences below were run on c-Abl (mouse) in the same assay as above.

First: PVQAAYQKVVD [HBB_Y131_A136D]
Second: GEIQEYGAPSD [ABCC1_Y1508]
The phosphorylation enrichment of the first is lower: 0.432 for the first, 0.757 for the second.

Compared with KRIETYFSKNY [PLP1_Y50_L46R], LRTAVYHEILI [CREBBP_Y1450] is higher in phosphorylation enrichment: 0.532 for the first, 2.77 for the second.

Going from GGDGSYVSVPL [TNNI3K_Y425_S430L] to ADRARYSAFGG [RBM4_Y361], the phosphorylation enrichment rises from 0.471 to 0.546.

Compared with FQKDVYDIPPS [NEDD9_Y177_YF], GEDEPYAEPYA [APBA1_Y183_S184A] is higher in phosphorylation enrichment: 0.662 for the first, 0.915 for the second.

Compared with FSQQTYCRVSN [ABCD1_Y180_Y181C], TRSYKYLLLSM [NF1_Y491] is higher in phosphorylation enrichment: 0.76 for the first, 0.852 for the second.

First: MSNSAYVKREV [SCN1A_Y1694_F1692S]
Second: EIEFLYNENTV [IARS1_Y680]
The phosphorylation enrichment of the first is lower: 0.442 for the first, 0.927 for the second.

Compared with AIKSFYAALID [RYR1_Y2426_M2423K], IVRSLYEDPED [VHL_Y185_L188P] is lower in phosphorylation enrichment: 0.719 for the first, 0.619 for the second.

Going from TEFIQYMRRKN [MAX_Y73_YF] to NSAFFYKTAEE [CCT6B_Y250_G247A], the phosphorylation enrichment rises from 0.404 to 0.593.

Going from SYCYRYCCAAR [SUMF1_Y344_R345C] to TLSGIYQFNIA [FOXL2_Y81_I84N_YF], the phosphorylation enrichment rises from 0.622 to 0.676.

First: NDFGNYNQQPS [HNRNPA2B1_Y306]
Second: VKYLGYPPPEI [KDR_Y357_A352V]
The phosphorylation enrichment of the first is lower: 0.74 for the first, 0.796 for the second.

First: DFGSGYPNDPK [RNASEH2A_Y210_YF]
Second: PGVNYYFRVSA
The phosphorylation enrichment of the first is lower: 0.562 for the first, 0.79 for the second.

Going from SWSTSYSGYRY [NKAPL_Y91] to QTPVLYTMLDH [MPZ_Y220_A221T], the phosphorylation enrichment rises from 0.652 to 0.674.

First: LAARFYNWVSF [FLT4_Y1231_YF]
Second: ATARPYRPFII [LRP5_Y1528_YF]
The phosphorylation enrichment of the first is lower: 0.988 for the first, 1.05 for the second.

Going from VGTKRYVAPEV [ACVRL1_Y375_M376V] to SVNCTYSPALN [TP53_Y126_T123N], the phosphorylation enrichment rises from 0.544 to 0.622.

Compared with EHLNRYINDTF [TTLL10_Y446_S448N], EIIPFYGMSTY [FNDC3B_Y175] is higher in phosphorylation enrichment: 0.751 for the first, 0.818 for the second.

First: GVTLLCFGRFN [ADGRD1_Y85_Y85C_YF]
Second: FKDGQYWIRGQ [ACSF3_Y466_R471Q]
The phosphorylation enrichment of the first is higher: 0.9 for the first, 0.433 for the second.

QRRLVYFERGA [RYR1_Y245_G248R_YF] gave a phosphorylation enrichment of 0.805.

These sequences were tested against Hck (UniProt P08631) in the same assay as above.
Sequence of Hck (P08631 whole entry, looked up): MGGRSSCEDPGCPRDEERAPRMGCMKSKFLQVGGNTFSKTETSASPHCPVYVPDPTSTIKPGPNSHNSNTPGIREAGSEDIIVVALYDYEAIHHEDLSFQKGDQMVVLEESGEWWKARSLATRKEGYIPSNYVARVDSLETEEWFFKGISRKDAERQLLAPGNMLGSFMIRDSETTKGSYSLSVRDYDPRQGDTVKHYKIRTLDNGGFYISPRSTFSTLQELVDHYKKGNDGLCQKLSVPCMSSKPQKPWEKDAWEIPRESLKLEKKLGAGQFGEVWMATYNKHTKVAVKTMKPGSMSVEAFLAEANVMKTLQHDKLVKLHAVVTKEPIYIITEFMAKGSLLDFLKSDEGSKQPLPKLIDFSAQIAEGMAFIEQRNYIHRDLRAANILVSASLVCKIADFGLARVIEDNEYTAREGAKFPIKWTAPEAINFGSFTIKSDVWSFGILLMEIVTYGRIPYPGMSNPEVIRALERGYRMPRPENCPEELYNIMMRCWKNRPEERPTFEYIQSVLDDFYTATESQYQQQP

Compared with PVQAAYQKVVD [HBB_Y131_A136D], GEIQEYGAPSD [ABCC1_Y1508] is lower in phosphorylation enrichment: 0.931 for the first, 0.505 for the second.

First: KRIETYFSKNY [PLP1_Y50_L46R]
Second: LRTAVYHEILI [CREBBP_Y1450]
The phosphorylation enrichment of the first is lower: 0.484 for the first, 7.29 for the second.

First: GGDGSYVSVPL [TNNI3K_Y425_S430L]
Second: ADRARYSAFGG [RBM4_Y361]
The phosphorylation enrichment of the first is higher: 0.437 for the first, 0.381 for the second.

First: FQKDVYDIPPS [NEDD9_Y177_YF]
Second: GEDEPYAEPYA [APBA1_Y183_S184A]
The phosphorylation enrichment of the first is higher: 2.69 for the first, 0.544 for the second.

Going from FSQQTYCRVSN [ABCD1_Y180_Y181C] to TRSYKYLLLSM [NF1_Y491], the phosphorylation enrichment falls from 1.34 to 0.422.

First: MSNSAYVKREV [SCN1A_Y1694_F1692S]
Second: EIEFLYNENTV [IARS1_Y680]
The phosphorylation enrichment of the first is lower: 0.399 for the first, 0.622 for the second.

Going from AIKSFYAALID [RYR1_Y2426_M2423K] to IVRSLYEDPED [VHL_Y185_L188P], the phosphorylation enrichment falls from 0.758 to 0.544.

First: TEFIQYMRRKN [MAX_Y73_YF]
Second: NSAFFYKTAEE [CCT6B_Y250_G247A]
The phosphorylation enrichment of the first is lower: 0.458 for the first, 0.496 for the second.

Going from SYCYRYCCAAR [SUMF1_Y344_R345C] to TLSGIYQFNIA [FOXL2_Y81_I84N_YF], the phosphorylation enrichment rises from 0.497 to 2.98.

Going from NDFGNYNQQPS [HNRNPA2B1_Y306] to VKYLGYPPPEI [KDR_Y357_A352V], the phosphorylation enrichment falls from 0.504 to 0.451.

Compared with DFGSGYPNDPK [RNASEH2A_Y210_YF], PGVNYYFRVSA is higher in phosphorylation enrichment: 0.423 for the first, 0.469 for the second.

Compared with SWSTSYSGYRY [NKAPL_Y91], QTPVLYTMLDH [MPZ_Y220_A221T] is higher in phosphorylation enrichment: 0.701 for the first, 5.48 for the second.

First: LAARFYNWVSF [FLT4_Y1231_YF]
Second: ATARPYRPFII [LRP5_Y1528_YF]
The phosphorylation enrichment of the first is higher: 0.476 for the first, 0.405 for the second.

First: VGTKRYVAPEV [ACVRL1_Y375_M376V]
Second: SVNCTYSPALN [TP53_Y126_T123N]
The phosphorylation enrichment of the first is lower: 0.351 for the first, 0.851 for the second.

First: EHLNRYINDTF [TTLL10_Y446_S448N]
Second: EIIPFYGMSTY [FNDC3B_Y175]
The phosphorylation enrichment of the first is lower: 0.49 for the first, 1.1 for the second.

Going from GVTLLCFGRFN [ADGRD1_Y85_Y85C_YF] to FKDGQYWIRGQ [ACSF3_Y466_R471Q], the phosphorylation enrichment rises from 0.587 to 0.915.

Work on QRRLVYFERGA [RYR1_Y245_G248R_YF] yielded a phosphorylation enrichment of 0.507.
